{"source": "patent US20090142281A1", "about": "“Composition Comprising A Coupled Enzyme System” (priority 2005, published 2009)", "molecules": {"B1": {"name": "sorbitol oxidase from Streptomyces species H-7775: sorbitol oxidase of Streptomyces sp. H-7775, SEQ ID NO 1, 420 amino acids (protein)", "chain": "MTPAEKNWAGNITFGAKRLCVPRSVRELRETVAASGAVRPLGTRHSFNTVADTSGDHVSLAGLPRVVDIDVPGRAVSLSAGLRFGEFAAELHARGLALANLGSLPHISVAGAVATGTHGSGVGNRSLAGAVRALSLVTADGETRTLRRTDEDFAGAVVSLGALGVVTSLELDLVPAFEVRQWVYEDLPEATLAARFDEVMSAAYSVSVFTDWRPGPVGQVWLKQRVGDEGARSVMPAEWLGARLADGPRHPVPGMPAGNCTAQQGVPGPWHERLPHFRMEFTPSNGDELQSEYFVARADAVAAYEALARLRDRIAPVLQVSELRTVAADDLWLSPAHGRDSVAFHFTWVPDAAAVAPVAGAIEEALAPFGARPHWGKVFSTAPEVLRTLYPRYADFEELVGRHDPEGTFRNAFLDRYFRR", "modifications": "Streptomyces sp. H7775"}}, "key": {"[1]": {"settings": "cited from earlier work"}, "[2]": {"assay": "In gel overlay activity assay (PMS/NBT) using sorbitol as substrate", "assay_type": "biochemical", "settings": "native gel", "description": "b) In gel overlay activity assay (PMS/NBT) using sorbitol as substrate.\nThe cell lysates were fractionated on a native gel that was further tested in an in-gel overlay activity assay using sorbitol as the substrate and an assay based on the PMS mediated reduction of NBT. […] The PMS/NBT is a diagnostic assay for flavoproteins where PMS=phenazine methosulfate is a redox mediator which is reduced by reduced FAD."}}}
{"molecule": "B1", "values": [{"measurement": "pH range of stability", "setting": "[1]; 24 hours at 30° C.", "value": "7.5-10 pH"}, {"measurement": "optimum temperature", "setting": "[1]; at pH 7.5", "value": 50, "unit": "°C"}, {"measurement": "activity towards sorbitol (stained band)", "setting": "[2]", "value": "has activity towards sorbitol"}]}
